The data set can be described thus: soluble on expression in E. coli; label from the status in PepcDB or PDB records.
“MGHHHHHHSHMPPYPANSVFCKDKVSLCCQVGPDFLGSSAPFSASHSAGITGMSHYAQPVFCSLNKGRTVW”: the “soluble on expression in E. coli” value is recorded as “not soluble”.

As to “MTQRLKDKLAVITGGANGIGRAIAERFAVEGADIAIADLVPAPEAEAAIRNLGRRVLTVKCDVSQPGDVEAFGKQVISTFGRCDILVNNAGIYPLIPFDELTFEQWKKTFEINVDSGFLMAKAFVPGMKRNGWGRIINLTSTTYWLKIEAYTHYISTKAANIGFTRALASDLGKDGITVNAIAPSLVRTATTEASALSAMFDVLPNMLQAIPRLQVPLDLTGAAAFLASDDASFITGQTLAVDGGMVRH”, the “soluble on expression in E. coli” value is “soluble”.

As to “MKYIEPHFISFTQHTLKSQLIPKSFHGMKILQFSDLHLGYYFSLQHLSQVVSKINAVNPDIVLFTGDLIDNYQTYTDTPFVASILKNIQAPFGKFAIYGNHDHGGYGTEYYEHIMRESGFELLLNSKKRIRLMDNSEISIFGLDDILLGKPKIEKTLQHARQNTYNIVLVHEPDIAPQISKYPINLQLSGHSHGGQVQIPFLGAIITPSLAKDYIEGFYTMQDLTLYVNRGLGRTRVPFRFMSKPEITIFTLQHSLEHHHHHH”, the “soluble on expression in E. coli” value is given as “not soluble”.

Regarding “MQDLSFSTIENHLGPAKDRFFGDGFKHVEYSARHVNLTESEANASISLSYPANWSKKNDSGELIPHLSSIDALTISINLSQDILLNRFKSIDHCWVRRISIRAGKKPEEDLRNINAKITKESQGLDSQGDTNLIFGGNVGTMTVQLEFIIPAAHEVDTIKDSTEKNCYSLHFKNRTQFIDDIIFYSPLNAISKLFVANDNEPHFLPGGIEANYPNIINPVDSLVSHAQIAQALLYKLDGLTRGESNTLWMRNLNIIAENPAKRRAATRLLVTELKRANIVSLKGENWRVAEVAGHMNGITFSSSVAHLLPL”, the “soluble on expression in E. coli” value is “not soluble”.

As to “MGQSTSKVPPSSPPNEPKFVQNTPISSPGFGRAQTMLDVSQLAAAAATLDAPTLQRSSSDTALNTSMTTTTVTQTACQKSYQQALEWGRNEQFLKLAHTFHTNNY”, the “soluble on expression in E. coli” value is given as “not soluble”.

As for “GPGSMSTEDASIAYAKKHKIHHLFELMATKVLLNRPENPFAYLRNLLKDVEESEKNRVPYDPTEVHFNNDVGAAAPAAGNSGGSGAAAPAAALTSAKKEKRTVTLATFGLDRAGKTCALSVLESGEADKKYTPTVGFAPIKFPLDDYNLCVFDLGGAANFRGIWVHYYHDCFGIVYVIDSAASDERVAESLKVLHETLQHPYVKGKPLLVLANKKDLPESRGVGVVPQGFLEEAMGEPGAPHRVLATCAIEDDPVLVEGIEWLLEAVSKEYDTLAKRVAKDSNEVKSEKARQRAARLAAIRGEDR”, the “soluble on expression in E. coli” value is on record as “soluble”.

On to “SPRKESPLRTAVDAAALTTSDIARQLEVKVQRMNTAHEREANAISSFQQAYGIASAHLDRLLLRIPELPLPEIDDRDVDGGRVRGTFASLQRHHQALDDAISAMHQASEKVYTIPGKQATQEQDPALAQLLSVEKRRRSLGHALETLAGRGVEAGTATGLELNRVSSQVNDLVARRDALLRQRESGVQEGGLDSEELEMELQLTTSVLQRLRADLLGERQAMEATAKRLDQASRAALEGERSFSDAVRDRAWGELDNV”, for which the “soluble on expression in E. coli” value is listed as “not soluble”.

Consider “MNKELQPKVVFLMGPTASGKTALALELAEKHNCEIISVDSALIYRGMDIGSAKPSAEELARGPHRLIDIRDPSESYSAADFRADALSEIEQIISMGKTPLLVGGTMMYFKALLEGLSPLPSADEVIRADIQAEADANGWEALHDQLREIDPVSAERIHPNDPQRLSRALEVYRISGKSLTELTMTKSAPLPYNVVQFAIAPRERKVLHELIGQRFRIMLEQGFIDEVAQLKARDDLHLDLPSMRCVGYRQCWQYLDGEFDHDTMVEKAIAATRQLAKRQLTWLRSWPELNWLESGAEGNLVTLMRHCRLEHHHHHH”, for which the “soluble on expression in E. coli” value is “soluble”.

In the case of “MSLAATIREVAALAGVAPGTVSNVLTGKKLVAEPLRKAVLDAIAQLDYRPNHLASSLRFGRTKSIGIVVPDMTNPFFSGLVRELELKAAKSGFQILLMSSYEEAAEERERIRALVSRQVDGLIISPSRDSIETSPHSAISGIPTVLVDRAFAVEGFDTVSADNEQATLMGARHLIELGHKRITFLATAPGLANMEERVSGYRKAMQDAGVSDANVVYGGLSIESCRSAIEQELRRAGRPTAVFASAYVATLGAAKAIRALDLAFPQDVSLLGFDDSDWMTVLRPYVSTIEQPLDELGHACWELLQRRMKKMDVPPVHRRIACTLRARESTREGHHHHHH”, the “soluble on expression in E. coli” value was “soluble”.

Regarding “MSLKTLSLCPICLKRIPATILEEDGKIIIKKTCPEHGEFKDIYWGDAELYKKFDKYEFIGKIEVTNTKVKNGCPYDCGLCPNHKSTTILANIDVTNRCNLNCPICFANANKSGKVYEPSFEDIKRMMENLRKEIPPTPAIQFAGGEPTVRSDLPELIKLARDMGFLHVQLATNGIKLKNINYLKKLKEAGLSTIYLQFDGISEKPYLVARGKNLLPIKQKVIENCKKVGFDSVVLVPTLVRGVNDNEVGGIIRYAAENVDVVRGINFQPVSFTGRVDEKTLLEGRITIPDFIKLVEEQTDGEITEEDFYPVPSVAPISVLVEKLTNDRKPTLSSHQHCGTSTYVFVDEDGKLIPITRFIDVEGFLEIVKEKIEEIGKSKMHDVKVLGEIALKLPSLIDLDKAPKSVNIKKIIDLILSVLKSDYSALAELHYHMLMISCMHFMDAYNFDVKRVMRCCIHYATPDDRIIPFCTYNTLHRQEVEEKFSIPLEEWKRMHKIGGEDDREDYEGHHHHHH”, the “soluble on expression in E. coli” value was “soluble”.

“MSLQEIKGLSFYHQDWEVYCSNTGTCRAAGYQSDDGSQQPASILLTREAGSKQPVQAEFALAGDDQETFAANKIKNIRFYVNGKDLGTVSVKGVDSPLMGKLSTAQVNGLLQQATQKVDIVFKNNHYVWKISDSGMTAALLKVDDFQKRIGTVGALVKKGKSDDSKVLMPQPKLVIKKVKTADQPYLTLNPKNKQYASLYKLLMAAQPTPKEDGFCEGVYDFDSDAITAQSIELYKLTNNKVLATTLCWRGAYNEGYGAWVLNQSLTGPATYITQSASDIASGIISSAQKGRGIGDCWMSQSWIWNGQKYVQNQDMWTGMCKGLAAGGVWELDQIEAVVKEGHHHHHH”: the “soluble on expression in E. coli” value is “soluble”.

Consider “MGSDKIHHHHHHMNRDTERTTMEGEHLYSPKNDDAPPAPAPDSPASLLDELIEAARVKRDEEAYPITRHGIEAFVAHLARPKRPIETVSQATIDDMIAEIDRKLCRQVDAILHHPDFQQLESTWRSLKFLVERTDFRENIKIQFLDVGKAALLDDFDDSPDITKSGLYQKVYAAEYGQFGGQPIGAIVANYTFGPGAQDVKLLQYVASTSAMAHTPFIAAAGPAFFGIDSFGKLPNVKDLASLFEGPQFAKWNAFRESEDARYVGLTLPRFLLRLPYGANTTPVKRFNYDERVDGGDADFLWGNAAFAFATRLTASFADYRWCANVIGPKGGGTVADLPLYAYEAMGEIQNKIPTDVLISERREFELAEQGFIALTMRKHSDNAAFFSANSTQKPKFFGISKEGKDAELNYRLGTQLPYIFVVNRLAHYIKVIQRENIGTWKERGDLEQELNQWIRQYVADMDNPTEGVRSRRPLRQAEIFVSDVEGEPGWYRVDMKVRPHFKYMGASFTLSLVGKLEKR”, for which the “soluble on expression in E. coli” value was “not soluble”.

For “SPDEIAQVRFLIVGRTGWIANMVAELLEQRGERYAFASFRLEQREACERELDALRPQRVLNVLGSLGVRTSTGARTTGARPSAVTYWAC”, the “soluble on expression in E. coli” value is reported as “soluble”.

Regarding “MAHHHHHHMTVKVASEVSLLPYGEHQGSFRGVVACSNRDDGYFSGENNYVDTSIYTGFRYQCVEYARRFLLLTTGCVFANCGRASEIYAMDHITHVETGAQYTLHRHHNDGTATQKPAPGDIIIYPYHPELTPWGHVGVISFVDDNRVGIAEQNHYFGPFTSPSESYLDGERCVARYAMLTLDEATKTWRIDEPGAMPSAVGWLSYPDAPTREQIHAPFTPLPCAIKVRSTPFDQDDHPFLTHYHLHKIFDIPSGCVRHAYGMRNGTAETLVGATSAAARVLRFTLHLLFHRGRLGPAFRALPTNPLNATLPEGAGASTEACREVDALFKVLAEEDVVNATETTPDRLRQAVATYFDIPVEWVMAMERDFAKGETHMAAVVSFYPNIATDSAALEAFRAARKRSGTWAAPAVGTVPLTTAKASTPVAEEPLTLSYPATVEELPLKNPHDEAWHLATVNFGNARVMTELSQLNKVKQDLTETIALMTPSMRPFISTQYRMDFAGYLKVVEAVYGPRTGFTIVVSDDQPMDGLLRELVSTVQNLCEHVEYPVRIVNEKDLTFVNGKLHATPSAISPEAGSHMTNIAPSGAYDVNFVYALCEWPRILACREATHAALYRAAVDPASDVVFAKPLWSYLCSGAVNVSDDAERAHYSHSPRSPSVRFFDVCRRLYLLASPTQQPKTWDLEVSEYKDSCRRIHVDAETVPMHSPAHLNADSLMINLAGSCYMGHAGGTLSVESENTGIHVGHPAFLMFMFPAD”, the “soluble on expression in E. coli” value is “not soluble”.

For “MGSDKIHHHHHHMKLFTSCKESVKNSIDTKYFSIAHLHSEEETMSIHIHDCYEIYYSISGENQFLIDNKLYYINPGNLFAVNEFESHYVSQVNNSTHERIVISIHPDFLKSLCTSKTNLTYCFKHRGSNFCHKVSLNKEQQSRFMYFINKIIGSHGFGADMIEYASFIELMIFLTSLFINNGESLTPIYKYSNQIEEIIRYINDNVTNDITVKHLAEHFFLSESYICRIFKLSTGTTINKYITARRISMAKALLSNGSSINDVYVKCGFNDYSNFLKSFKKAVGISPKKYSTFSTS”, the “soluble on expression in E. coli” value is listed as “not soluble”.

Consider “GHMEDFWVQYGDEMLPVIGDFPRKGDYLPSFMLVDDQKHDAALESFSHTPKLIVTLLSVDEDEHAGLLLLRETRRFLDSWPHLKLIVITVDSPSSLARARHEHGLPNIALLSTLRGRDFHKRYGVLITEYPLSGYTSPAIILADAANVVHYSERLANTRDFFDFDAIEKLLQEGEQQAMAAEREAAEARQEQDAEREKGTERLLEKAKLIQDQLNRNGDPGRGS”, for which the “soluble on expression in E. coli” value is given as “soluble”.

On to “MGSDKIHHHHHHMLTMIQQYHIKHLNFHKGKSLRSIAEETGHDFRTVKKYAEQTDFNEIRKPKRGRPSKLDPVKPIIDAWLKEDLNRPVKQRHTARRIYDRLCDEHQDIFNACERTVRTYVSARKKELYGEEEGYLPLEHPAGEAQVDFGEIVMIEQGQKVKGYELILSLPYSNAGYPQIFRGQNQECLLTGLKDIF”, for which the “soluble on expression in E. coli” value is listed as “not soluble”.

Take “MSLSAMQWERLLDPTRLNDKHGGSREEIGRSPFHKDHDRIVFAGSFRRLGRKTQVHPLTDNDHIHTRLTHSLEVGCVGRSLGMIVGEQLRERLPAWITPADLGVIVQAACLGHDIGNPPFGHAGEYAIRDWFKRAEADGSGLLADLAPAEREDLLTYEGNAQGFRIVTQIEYNQFNGGMRLTAATLGTMLKYPWTVERASRAGKFGCYQSERELLGEVAERLGLLPRGETAWCRHPLAYLVEAADDICYALLDLEDGLEMGILRFDEVAEILIQIAGGAPEGYDGMRARGVSQRRRIATLRGAAMERAVNDVAAVFVAHESALLGGTLSEDLLELCHPDLGWGVGTAKRIARERIFQNERKAKLEIGAYTTLGILLEAFIGAAHELHYSGQSSFKHQRVLALIGENTPKSSWSLYASYRRMLDFIGGMTDHYAVDLAQEMGGRLEGHHHHHH”: the “soluble on expression in E. coli” value is listed as “soluble”.

The values above are taken from the DeepSol protein solubility set.
